Laboratory results: publication PMC3555993, “Structural and Functional Analysis of the DEAF-1 and BS69 MYND Domains” (PLoS ONE, 2013)

B1: human DEAF-1 MYND domain (residues 501–544) (domain or fragment)
chain: GAMEQSCVNCGREAMSECTGCHKVNYCSTFCQRKDWKDHQHICGQSA
notes: N-terminal insertion of three amino acids GAM; DEAF-1, human, MYND domain, residues 501-544; 15N- or 15N/13C-labelled for NMR; also called short construct; source: E. coli BL21(DE3), purified (Ni-NTA, TEV cleavage, second Ni column, Superdex 75); not shown: poly-histidine tag, N-terminal, cleaved; thioredoxin, N-terminal, cleaved

What was measured:
[1] = biological target: B1; experiment: NMR titration; 1 mM 15N-labeled DEAF-1 MYND titrated with unlabeled peptide (SMRT up to 9-fold, NCoR up to 5-fold molar excess); chemical shift perturbations fitted to a binding isotherm; fast exchange; conditions: both partners purified
[2] = biological target: the molecule itself; experiment: AUC; sedimentation velocity, concentration-dependent; continuous sedimentation distribution at 86 µM DEAF-1 MYND; fitted to a self-association model; dimer to monomers

Row | Kd [1] | Binder | Kd [2] | stoichiometry N [2]
1 | 5.3 ± 0.54 mM | SNPPPLISSA (silencing mediator of retinoid and thyroid receptor (SMRT), residues 1111-1120; Unlabelled peptide; also called SMRT peptide) [SMRT corepressor peptide (residues 1111–1120 of SMRT)] |  | 
2 | 3.08 ± 0.12 mM | RPPPPLIPSS (nuclear receptor corepressor (NCoR), residues 1031-1040; Unlabelled peptide; also called NCoR peptide) [NCoR corepressor peptide (residues 1031–1040 of NCoR)] |  | 
3 |  | B1 | 500 ± 100 nM | 2
